Assay results from US20140087995A1 (published 2014).
One block for each binder: values may come before it. Numbered stars: 1 amine (or outer) side, 2 acyl side, 3 side chain; on linkers, the order of the positions; unused ones are H or OH. Bridge positions count the residues as written; N and C are the ends. Side chains are listed from the residue outwards. Ends that are not written are not given here. * marks the point of attachment. C20 diacid = O=C(O)CCCCCCCCCCCCCCCCCCC(=O)*; γGlu = O=C(O)[C@H](CCC(=O)[*:2])N[*:1]

Columns and labels:
rat calcitonin receptor [1] = target: T1, rat calcitonin receptor (rat, UniProt P32214 25-516); assay: ratio of IC50 on rat calcitonin receptor to IC50 on rat amylin receptor (reference m40)
T1 construct: whole, on cells; Membranes of transiently transfected BHK tk'ts 13 cells; also called rCTR; rat calcitonin (a) receptor
T1 sequence (looked up): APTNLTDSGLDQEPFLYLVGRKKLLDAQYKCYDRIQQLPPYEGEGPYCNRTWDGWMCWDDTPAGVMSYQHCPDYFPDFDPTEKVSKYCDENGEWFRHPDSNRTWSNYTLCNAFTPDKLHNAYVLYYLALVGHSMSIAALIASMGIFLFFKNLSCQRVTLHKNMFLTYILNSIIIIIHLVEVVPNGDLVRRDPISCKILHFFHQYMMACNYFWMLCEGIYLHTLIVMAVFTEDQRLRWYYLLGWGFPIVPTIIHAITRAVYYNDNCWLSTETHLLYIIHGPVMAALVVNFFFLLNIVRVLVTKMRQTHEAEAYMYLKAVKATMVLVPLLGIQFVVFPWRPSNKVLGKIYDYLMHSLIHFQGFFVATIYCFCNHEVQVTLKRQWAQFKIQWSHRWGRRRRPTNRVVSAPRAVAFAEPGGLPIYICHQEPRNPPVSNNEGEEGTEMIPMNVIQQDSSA

[2] = target: T2, human calcitonin receptor (human, UniProt P30988 25-474); assay: ratio of IC50 on human calcitonin receptor to IC50 on human amylin receptor (reference m42), SPA competition
T2 construct: whole, on cells; Membranes of stably transfected cells; also called hCTR; hCT
T2 sequence (looked up): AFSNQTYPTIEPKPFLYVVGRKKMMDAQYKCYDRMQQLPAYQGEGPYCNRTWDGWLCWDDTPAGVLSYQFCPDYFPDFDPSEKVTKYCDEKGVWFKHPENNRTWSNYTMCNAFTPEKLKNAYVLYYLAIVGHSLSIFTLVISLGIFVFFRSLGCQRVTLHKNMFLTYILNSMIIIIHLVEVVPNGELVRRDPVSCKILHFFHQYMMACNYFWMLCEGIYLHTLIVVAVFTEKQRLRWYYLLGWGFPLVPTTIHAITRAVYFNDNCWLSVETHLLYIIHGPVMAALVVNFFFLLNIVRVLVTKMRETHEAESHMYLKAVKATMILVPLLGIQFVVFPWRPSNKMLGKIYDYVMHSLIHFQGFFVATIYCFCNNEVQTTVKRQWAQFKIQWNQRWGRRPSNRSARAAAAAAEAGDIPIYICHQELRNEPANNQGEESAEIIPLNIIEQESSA
Summary of the method: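 Scintillation proximity competition binding on cell membranes at 35 ng/μL with SPA beads, in 50 mM Hepes pH 7.4, 1 mM CaCl2, 5 mM MgCl₂, 0.1% OA, 0.02% Tween20. Incubated 120 min at 25° C with shaking. IC₅₀ from one-site competition fit.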

rat calcitonin receptor [3] = target: T1, rat calcitonin receptor; assay: SPA competition with 125I-calcitonin on membranes of BHK tk'ts 13 cells with rat calcitonin receptor (Assay VIII)
[4] = target: T3, rat amylin receptor (rat calcitonin receptor + rat RAMP 3) (rat, UniProt P32214 25-516; Q9JJ73 23-147); assay: SPA competition with 125I-rat amylin on membranes of BHK tk'ts 13 cells with rat calcitonin receptor + rat RAMP3 (Assay VI)
T3 construct: whole, on cells; Membranes of transiently transfected BHK tk'ts 13 cells; also called rAmylin-R; rat amylin 3(a) receptor
T3 sequence (looked up) 1: T1 sequence (looked up)
T3 sequence (looked up) 2: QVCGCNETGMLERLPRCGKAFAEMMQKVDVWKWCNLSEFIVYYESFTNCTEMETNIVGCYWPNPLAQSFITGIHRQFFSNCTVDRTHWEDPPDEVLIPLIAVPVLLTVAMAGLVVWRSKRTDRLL

B1: N^ε1-[(4S)-4-carboxy-4-(19-carboxynonadecanoylamino)butanoyl]-[Glu14,Arg17,Pro21,Pro27,His35]-h-amylin (peptide)
peptide: K([γGlu-C20 diacid])CNTATCATQRLAEFLRHSSPNFGAIPSSTNVGSHTY-NH2
modifications: disulfide 2-7; N-terminus assumed
SMILES: CC[C@H](C)[C@H](NC(=O)[C@H](C)NC(=O)CNC(=O)[C@H](Cc1ccccc1)NC(=O)[C@H](CC(N)=O)NC(=O)[C@@H]1CCCN1C(=O)[C@H](CO)NC(=O)[C@H](CO)NC(=O)[C@H](Cc1c[nH]cn1)NC(=O)[C@H](CCCNC(=N)N)NC(=O)[C@H](CC(C)C)NC(=O)[C@H](Cc1ccccc1)NC(=O)[C@H](CCC(=O)O)NC(=O)[C@H](C)NC(=O)[C@H](CC(C)C)NC(=O)[C@H](CCCNC(=N)N)NC(=O)[C@H](CCC(N)=O)NC(=O)[C@@H](NC(=O)[C@H](C)NC(=O)[C@@H]1CSSC[C@H](NC(=O)[C@@H](N)CCCCNC(=O)CC[C@H](NC(=O)CCCCCCCCCCCCCCCCCCC(=O)O)C(=O)O)C(=O)N[C@@H](CC(N)=O)C(=O)N[C@@H]([C@@H](C)O)C(=O)N[C@@H](C)C(=O)N[C@@H]([C@@H](C)O)C(=O)N1)[C@@H](C)O)C(=O)N1CCC[C@H]1C(=O)N[C@@H](CO)C(=O)N[C@@H](CO)C(=O)N[C@H](C(=O)N[C@@H](CC(N)=O)C(=O)N[C@H](C(=O)NCC(=O)N[C@@H](CO)C(=O)N[C@@H](Cc1c[nH]cn1)C(=O)N[C@H](C(=O)N[C@@H](Cc1ccc(O)cc1)C(N)=O)[C@@H](C)O)C(C)C)[C@@H](C)O
notes: Synthetic acylated analogue of human amylin
Ratio rCT/rAmylin binding (rat calcitonin receptor [1]): 22.7 | Ratio hCT/hAmylin binding [2]: 26.4 | IC50 (rat calcitonin receptor [3]): 26.3 nM | IC50 [4]: 1.16 nM

B3: N^ε1-[(4S)-4-carboxy-4-(19-carboxynonadecanoylamino)butanoyl]-[Glu14,Arg17,Pro21,Pro27,Pro34,Arg35]-h-amylin (peptide)
peptide: K([γGlu-C20 diacid])CNTATCATQRLAEFLRHSSPNFGAIPSSTNVGPRTY-NH2
modifications: disulfide 2-7; N-terminus assumed
SMILES: CC[C@H](C)[C@H](NC(=O)[C@H](C)NC(=O)CNC(=O)[C@H](Cc1ccccc1)NC(=O)[C@H](CC(N)=O)NC(=O)[C@@H]1CCCN1C(=O)[C@H](CO)NC(=O)[C@H](CO)NC(=O)[C@H](Cc1c[nH]cn1)NC(=O)[C@H](CCCNC(=N)N)NC(=O)[C@H](CC(C)C)NC(=O)[C@H](Cc1ccccc1)NC(=O)[C@H](CCC(=O)O)NC(=O)[C@H](C)NC(=O)[C@H](CC(C)C)NC(=O)[C@H](CCCNC(=N)N)NC(=O)[C@H](CCC(N)=O)NC(=O)[C@@H](NC(=O)[C@H](C)NC(=O)[C@@H]1CSSC[C@H](NC(=O)[C@@H](N)CCCCNC(=O)CC[C@H](NC(=O)CCCCCCCCCCCCCCCCCCC(=O)O)C(=O)O)C(=O)N[C@@H](CC(N)=O)C(=O)N[C@@H]([C@@H](C)O)C(=O)N[C@@H](C)C(=O)N[C@@H]([C@@H](C)O)C(=O)N1)[C@@H](C)O)C(=O)N1CCC[C@H]1C(=O)N[C@@H](CO)C(=O)N[C@@H](CO)C(=O)N[C@H](C(=O)N[C@@H](CC(N)=O)C(=O)N[C@H](C(=O)NCC(=O)N1CCC[C@H]1C(=O)N[C@@H](CCCNC(=N)N)C(=O)N[C@H](C(=O)N[C@@H](Cc1ccc(O)cc1)C(N)=O)[C@@H](C)O)C(C)C)[C@@H](C)O
notes: as for B1
Ratio rCT/rAmylin binding (rat calcitonin receptor [1]): 45.5 | Ratio hCT/hAmylin binding [2]: 38.6 | IC50 (rat calcitonin receptor [3]): 15.4 nM | IC50 [4]: 0.339 nM

B4: N^ε1-[(4S)-4-carboxy-4-(19-carboxynonadecanoylamino)butanoyl]-[His14,Arg17,Pro21,Pro27,Pro31,Pro34]-h-amylin (peptide)
peptide: K([γGlu-C20 diacid])CNTATCATQRLAHFLRHSSPNFGAIPSSTPVGPNTY-NH2
modifications: disulfide 2-7; N-terminus assumed
SMILES: CC[C@H](C)[C@H](NC(=O)[C@H](C)NC(=O)CNC(=O)[C@H](Cc1ccccc1)NC(=O)[C@H](CC(N)=O)NC(=O)[C@@H]1CCCN1C(=O)[C@H](CO)NC(=O)[C@H](CO)NC(=O)[C@H](Cc1c[nH]cn1)NC(=O)[C@H](CCCNC(=N)N)NC(=O)[C@H](CC(C)C)NC(=O)[C@H](Cc1ccccc1)NC(=O)[C@H](Cc1c[nH]cn1)NC(=O)[C@H](C)NC(=O)[C@H](CC(C)C)NC(=O)[C@H](CCCNC(=N)N)NC(=O)[C@H](CCC(N)=O)NC(=O)[C@@H](NC(=O)[C@H](C)NC(=O)[C@@H]1CSSC[C@H](NC(=O)[C@@H](N)CCCCNC(=O)CC[C@H](NC(=O)CCCCCCCCCCCCCCCCCCC(=O)O)C(=O)O)C(=O)N[C@@H](CC(N)=O)C(=O)N[C@@H]([C@@H](C)O)C(=O)N[C@@H](C)C(=O)N[C@@H]([C@@H](C)O)C(=O)N1)[C@@H](C)O)C(=O)N1CCC[C@H]1C(=O)N[C@@H](CO)C(=O)N[C@@H](CO)C(=O)N[C@H](C(=O)N1CCC[C@H]1C(=O)N[C@H](C(=O)NCC(=O)N1CCC[C@H]1C(=O)N[C@@H](CC(N)=O)C(=O)N[C@H](C(=O)N[C@@H](Cc1ccc(O)cc1)C(N)=O)[C@@H](C)O)C(C)C)[C@@H](C)O
notes: as for B1
Ratio rCT/rAmylin binding (rat calcitonin receptor [1]): 72.4 | Ratio hCT/hAmylin binding [2]: 24.8 | IC50 (rat calcitonin receptor [3]): 9.05 nM | IC50 [4]: 0.125 nM

B6: N^ε1-[(4S)-4-carboxy-4-(19-carboxynonadecanoylamino)butanoyl]-[Glu14,Arg17,Pro21,Pro27,Pro34,His35]-h-amylin (peptide)
peptide: K([γGlu-C20 diacid])CNTATCATQRLAEFLRHSSPNFGAIPSSTNVGPHTY-NH2
modifications: disulfide 2-7
notes: as for B1
Ratio rCT/rAmylin binding (rat calcitonin receptor [1]): 52.2 | Ratio hCT/hAmylin binding [2]: 21.2 | IC50 (rat calcitonin receptor [3]): 5.43 nM | IC50 [4]: 0.104 nM

B7: N^ε1-[(4S)-4-carboxy-4-[[(4S)-4-carboxy-4-(19-carboxynonadecanoylamino)butanoyl]amino]butanoyl]-[Arg17,Pro21,Pro27,Pro31,Pro34,Arg35]-h-amylin (peptide)
peptide: K([γGlu-γGlu-C20 diacid])CNTATCATQRLANFLRHSSPNFGAIPSSTPVGPRTY-NH2
modifications: disulfide 2-7; N-terminus assumed
SMILES: CC[C@H](C)[C@H](NC(=O)[C@H](C)NC(=O)CNC(=O)[C@H](Cc1ccccc1)NC(=O)[C@H](CC(N)=O)NC(=O)[C@@H]1CCCN1C(=O)[C@H](CO)NC(=O)[C@H](CO)NC(=O)[C@H](Cc1c[nH]cn1)NC(=O)[C@H](CCCNC(=N)N)NC(=O)[C@H](CC(C)C)NC(=O)[C@H](Cc1ccccc1)NC(=O)[C@H](CC(N)=O)NC(=O)[C@H](C)NC(=O)[C@H](CC(C)C)NC(=O)[C@H](CCCNC(=N)N)NC(=O)[C@H](CCC(N)=O)NC(=O)[C@@H](NC(=O)[C@H](C)NC(=O)[C@@H]1CSSC[C@H](NC(=O)[C@@H](N)CCCCNC(=O)CC[C@H](NC(=O)CC[C@H](NC(=O)CCCCCCCCCCCCCCCCCCC(=O)O)C(=O)O)C(=O)O)C(=O)N[C@@H](CC(N)=O)C(=O)N[C@@H]([C@@H](C)O)C(=O)N[C@@H](C)C(=O)N[C@@H]([C@@H](C)O)C(=O)N1)[C@@H](C)O)C(=O)N1CCC[C@H]1C(=O)N[C@@H](CO)C(=O)N[C@@H](CO)C(=O)N[C@H](C(=O)N1CCC[C@H]1C(=O)N[C@H](C(=O)NCC(=O)N1CCC[C@H]1C(=O)N[C@@H](CCCNC(=N)N)C(=O)N[C@H](C(=O)N[C@@H](Cc1ccc(O)cc1)C(N)=O)[C@@H](C)O)C(C)C)[C@@H](C)O
notes: as for B1
Ratio rCT/rAmylin binding (rat calcitonin receptor [1]): 137 | Ratio hCT/hAmylin binding [2]: 48.6 | IC50 (rat calcitonin receptor [3]): 52.4 nM | IC50 [4]: 0.381 nM

Continued, values first:

Ratio rCT/rAmylin binding (rat calcitonin receptor [1]): 98.5 | Ratio hCT/hAmylin binding [2]: 49.8 | IC50 (rat calcitonin receptor [3]): 31.9 nM | IC50 [4]: 0.324 nM
B2: N^ε1-[(4S)-4-carboxy-4-[[(4S)-4-carboxy-4-(19-carboxynonadecanoylamino)butanoyl]amino]butanoyl]-[Asp14,Arg17,Pro21,Pro27,Pro34,Glu35]-h-amylin (peptide)
peptide: K([γGlu-γGlu-C20 diacid])CNTATCATQRLADFLRHSSPNFGAIPSSTNVGPETY-NH2
modifications: disulfide 2-7
notes: as for B1

Ratio rCT/rAmylin binding (rat calcitonin receptor [1]): 240 | Ratio hCT/hAmylin binding [2]: 280 | IC50 (rat calcitonin receptor [3]): 223 nM | IC50 [4]: 0.93 nM
B5: N^ε1-[(4S)-4-carboxy-4-[[(4S)-4-carboxy-4-(19-carboxynonadecanoylamino)butanoyl]amino]butanoyl]-[Asp14,Arg17,Pro21,Pro27,Pro34,Arg35]-h-amylin (peptide)
peptide: K([γGlu-γGlu-C20 diacid])CNTATCATQRLADFLRHSSPNFGAIPSSTNVGPRTY-NH2
modifications: disulfide 2-7
notes: Synthetic acylated analogue of human amylin; also called compound 130
